This passage reports protein stability index results from the supplement of paper PMC10567573.

The chains are these.
B1: TRIM35 (parent)
chain: PTCPVCKDRASPADLRTNHTLNNL
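Note: lentivirally expressed fusions sorted by FACS into six bins by GFP to DsRed ratio, PSI derived from sequencing read proportions per bin multiplied by bin number.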

Variants of B1 are the subject of the data set. The data set can be described thus: protein stability index of a GFP-peptide fusion (GPS, HEK-293T) (PSI 1-6); higher = more stable. To be noted: c terminus: a fixed tail appended.
Regarding PTCPVCKDRASPAELRTNHTLNNL [D14E], the protein stability index was 3.12.
For PTCPVCKDRASPATLRTNHTLNNL [D14T] the value was 2.77; for PTCPVCKDRASPASLRTNHTLNNL [D14S], 2.98; for PTCPVCKDRASPAALRTNHTLNNL [D14A], 2.5.
For PTCPVCKDRASPANLRTNHTLNNL [D14N] the value was 2.5; for PTCPVCKDRASPAHLRTNHTLNNL [D14H], 2.97.
Take PTCPVCKDRASPAWLRTNHTLNNL [D14W]: the protein stability index is 2.6.
For PTCPVCKDRASPARLRTNHTLNNL [D14R] the value was 2.94; for PTCPVCKDRASPAQLRTNHTLNNL [D14Q], 3.18.
The same measure for PTCPVCKDRASPACLRTNHTLNNL [D14C]: 3.9.
The same measure for PTCPVCKDRASPALLRTNHTLNNL [D14L]: 2.2.
As to PTCPVCKDRASPAPLRTNHTLNNL [D14P], the protein stability index amounted to 2.98.
For PTCPVCKDRASPAMLRTNHTLNNL [D14M] the value was 2.2; for PTCPVCKDRASPAILRTNHTLNNL [D14I], 2.45.
Consider PTCPVCKDRASPAYLRTNHTLNNL [D14Y], for which the protein stability index is 2.24.
The same measure for PTCPVCKDRASPAFLRTNHTLNNL [D14F]: 2.21; for PTCPVCKDRASPAGLRTNHTLNNL [D14G]: 2.48.
For PTCPVCKDRASPAVLRTNHTLNNL [D14V] the value was 2.54; for PTCPVCKDRASPAKLRTNHTLNNL [D14K], 2.72; for PTCPVCKDRASPADLRTWHTLNNL [N18W], 2.16.
The same measure for PTCPVCKDRASPADLRTIHTLNNL [N18I]: 2.31; for PTCPVCKDRASPADLRTQHTLNNL [N18Q]: 3.3; for PTCPVCKDRASPADLRTMHTLNNL [N18M]: 2.64.
Take PTCPVCKDRASPADLRTRHTLNNL [N18R]: the protein stability index amounted to 2.71.
For PTCPVCKDRASPADLRTSHTLNNL [N18S] the value was 2.81.
Turning to PTCPVCKDRASPADLRTGHTLNNL [N18G], the protein stability index is 3.03.
For PTCPVCKDRASPADLRTPHTLNNL [N18P] the value was 2.83; for PTCPVCKDRASPADLRTHHTLNNL [N18H], 2.94; for PTCPVCKDRASPADLRTTHTLNNL [N18T], 2.86.
The same measure for PTCPVCKDRASPADLRTAHTLNNL [N18A]: 2.67.
The same measure for PTCPVCKDRASPADLRTFHTLNNL [N18F]: 2.53; for PTCPVCKDRASPADLRTYHTLNNL [N18Y]: 2.76.
In the case of PTCPVCKDRASPADLRTVHTLNNL [N18V], the protein stability index is 2.62.
The same measure for PTCPVCKDRASPADLRTEHTLNNL [N18E]: 3.75; for PTCPVCKDRASPADLRTKHTLNNL [N18K]: 2.48; for PTCPVCKDRASPADLRTDHTLNNL [N18D]: 3.4.
For PTCPVCKDRASPADLRTCHTLNNL [N18C] the value was 3.6; for PTCPVCKDRASPADLRTLHTLNNL [N18L], 2.6.
With PTCPVCKDRHSPADLRTNHTLNNL [A10H], the protein stability index was 3.23.
The same measure for PTCPVCKDRCSPADLRTNHTLNNL [A10C]: 2.03; for PTCPVCKDRNSPADLRTNHTLNNL [A10N]: 2.78; for PTCPVCKDRFSPADLRTNHTLNNL [A10F]: 2.96.
The same measure for PTCPVCKDRKSPADLRTNHTLNNL [A10K]: 3.05.
For PTCPVCKDRQSPADLRTNHTLNNL [A10Q] the value was 3.01.
On to PTCPVCKDRSSPADLRTNHTLNNL [A10S], for which the protein stability index came out at 2.86.
The same measure for PTCPVCKDRVSPADLRTNHTLNNL [A10V]: 2.45; for PTCPVCKDRTSPADLRTNHTLNNL [A10T]: 2.96; for PTCPVCKDRDSPADLRTNHTLNNL [A10D]: 3.34.
The same measure for PTCPVCKDRYSPADLRTNHTLNNL [A10Y]: 2.56.
Turning to PTCPVCKDRMSPADLRTNHTLNNL [A10M], the protein stability index was found to be 2.72.
The same measure for PTCPVCKDRGSPADLRTNHTLNNL [A10G]: 2.88.
For PTCPVCKDRPSPADLRTNHTLNNL [A10P] the value was 3.17; for PTCPVCKDRRSPADLRTNHTLNNL [A10R], 3.03; for PTCPVCKDRISPADLRTNHTLNNL [A10I], 3.05.
For PTCPVCKDRESPADLRTNHTLNNL [A10E] the value was 3.33.
On to PTCPVCKDRWSPADLRTNHTLNNL [A10W], for which the protein stability index is 2.22.
For PTCPVCKDRLSPADLRTNHTLNNL [A10L] the value was 1.96; for PTCPVCKDRAFPADLRTNHTLNNL [S11F], 2.55.
With PTCPVCKDRAIPADLRTNHTLNNL [S11I], the protein stability index came out at 2.97.
Regarding PTCPVCKDRAHPADLRTNHTLNNL [S11H], the protein stability index is 2.92.
For PTCPVCKDRAVPADLRTNHTLNNL [S11V] the value was 3.1; for PTCPVCKDRAGPADLRTNHTLNNL [S11G], 2.94.
The same measure for PTCPVCKDRADPADLRTNHTLNNL [S11D]: 3.44; for PTCPVCKDRAEPADLRTNHTLNNL [S11E]: 3.51.
The same measure for PTCPVCKDRARPADLRTNHTLNNL [S11R]: 2.72; for PTCPVCKDRANPADLRTNHTLNNL [S11N]: 2.86.
Consider PTCPVCKDRAKPADLRTNHTLNNL [S11K], for which the protein stability index was found to be 3.32.
For PTCPVCKDRACPADLRTNHTLNNL [S11C] the value was 3.74; for PTCPVCKDRAPPADLRTNHTLNNL [S11P], 3.19; for PTCPVCKDRATPADLRTNHTLNNL [S11T], 3.04.
The same measure for PTCPVCKDRAMPADLRTNHTLNNL [S11M]: 3.1; for PTCPVCKDRAYPADLRTNHTLNNL [S11Y]: 3.11.
For PTCPVCKDRAQPADLRTNHTLNNL [S11Q] the value was 3.07.
As to PTCPVCKDRAAPADLRTNHTLNNL [S11A], the protein stability index worked out at 3.3.
PTCPVCKDRAWPADLRTNHTLNNL [S11W]: the protein stability index is 2.51.
The same measure for PTCPVCKDRALPADLRTNHTLNNL [S11L]: 3.07; for PTCPVCKDRASPADARTNHTLNNL [L15A]: 3.35; for PTCPVCKDRASPADCRTNHTLNNL [L15C]: 4.23.
The same measure for PTCPVCKDRASPADERTNHTLNNL [L15E]: 3.86; for PTCPVCKDRASPADPRTNHTLNNL [L15P]: 3.34; for PTCPVCKDRASPADHRTNHTLNNL [L15H]: 3.14.
For PTCPVCKDRASPADRRTNHTLNNL [L15R], the protein stability index was determined as 3.33.
For PTCPVCKDRASPADTRTNHTLNNL [L15T] the value was 3.57.
As to PTCPVCKDRASPADWRTNHTLNNL [L15W], the protein stability index was 2.13.
For PTCPVCKDRASPADKRTNHTLNNL [L15K], the protein stability index amounted to 3.21.
For PTCPVCKDRASPADMRTNHTLNNL [L15M] the value was 2.9; for PTCPVCKDRASPADIRTNHTLNNL [L15I], 3.
Regarding PTCPVCKDRASPADGRTNHTLNNL [L15G], the protein stability index came to 3.87.
On to PTCPVCKDRASPADNRTNHTLNNL [L15N], for which the protein stability index turned out to be 3.96.
The same measure for PTCPVCKDRASPADDRTNHTLNNL [L15D]: 3.73; for PTCPVCKDRASPADVRTNHTLNNL [L15V]: 3.67; for PTCPVCKDRASPADYRTNHTLNNL [L15Y]: 2.83.
For PTCPVCKDRASPADQRTNHTLNNL [L15Q] the value was 3.78; for PTCPVCKDRASPADFRTNHTLNNL [L15F], 2.66.
